In paper doi:10.1101/2025.08.01.667454:
pKd: −log10 of the molar value.

Target: PU.1[60–100]^TMR (human) (UniProt P17947)
Test: fluorescence polarisation

pKd: < 4.30
Substance: BAF60A^SWIB (domain or fragment)
